Patent publication US7803572B2, “Protease detection assay” (Atlas Genetics, Ltd., priority 2003, dated 2010)
One block for each molecule: values may come before it.

Assays:
porcine pancreas trypsin [1] = biological target: T1, porcine pancreas trypsin (Sus scrofa, UniProt P00761); test: Digestion of labelled protein with trypsin, differential pulse voltammetry; format: biochemical
T1 construct: purchased Sigma; host or cells: porcine pancreas
Experimental: (§1) Protease assays were performed as follows unless stated otherwise. […] Samples were incubated at 37° C. for 1 hour.
A digestion of Fc-BSA with trypsin was carried out as described above. […] The positive reaction has a peak position of 435 mV and a peak height of 4.58×10^−7 A; the no trypsin control reaction has a peak position of 432 mV and a peak height of 2.55×10^−8 A.
A digestion of unlabelled BSA with trypsin was carried out in the same manner as for the labelled molecules as described above. The differential pulse voltammogram results are shown in FIG. 10 in which (a) is the trace for a no-trypsin control reaction and (b) is the trace for trypsin BSA reaction.
A digestion of FcU-BSA with trypsin was carried out as described above. […] The positive reaction has a peak position of 97 mV and a peak height of 5.01×10^−7 A; there was no peak in the no-trypsin control reaction. […]
Five digestions of Fc-BSA with trypsin were carried out using the protocol described above. As described in the general protocol, 2 μl of enzyme was used for each 200 μl reaction; for reaction (i) 10 mg/ml enzyme solution was used; reaction (ii): 1 mg/ml; reaction (iii) 0.1 mg/ml; reaction (iv) 0.01 mg/ml and reaction (v) was a no-trypsin control. The differential pulse voltammogram results are shown in FIG. 14 with baseline correction.
Five digestions of Fc-BSA with trypsin were carried out using the protocol described above. In reaction (i) the incubation at 37° was carried out for 60 minutes, in reaction (ii) for 15 minutes, in reaction (iii) for 5 minutes, in reaction (iv) for 2 minutes and reaction (v) was a 0 minutes no-trypsin control. The differential pulse voltammogram results are shown in FIG. 15 with baseline correction.

papaya latex papain = biological target: T2, papaya latex papain (Carica papaya, UniProt P00784); test: Digestion of FcU-BSA with papain, differential pulse voltammetry; format: biochemical
T2 construct: purchased Sigma; host or cells: papaya latex
T2 sequence (P00784 134-345): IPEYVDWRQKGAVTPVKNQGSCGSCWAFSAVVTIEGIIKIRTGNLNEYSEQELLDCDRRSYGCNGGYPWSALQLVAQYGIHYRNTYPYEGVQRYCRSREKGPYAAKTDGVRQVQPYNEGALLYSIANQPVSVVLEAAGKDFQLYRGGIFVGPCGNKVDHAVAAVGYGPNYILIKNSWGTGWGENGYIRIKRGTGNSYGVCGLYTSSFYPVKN
Experimental: as §1
A digestion of FcU-BSA with papain was carried out as described above.

papain = biological target: T3, papain (Carica papaya, UniProt P00784); test: Amperometric analysis of papain digestion; format: biochemical; settings: amperometric time course trace, FIG. 18
T3 construct: purchased Sigma; host or cells: papaya latex
T3 sequence (P00784 134-345): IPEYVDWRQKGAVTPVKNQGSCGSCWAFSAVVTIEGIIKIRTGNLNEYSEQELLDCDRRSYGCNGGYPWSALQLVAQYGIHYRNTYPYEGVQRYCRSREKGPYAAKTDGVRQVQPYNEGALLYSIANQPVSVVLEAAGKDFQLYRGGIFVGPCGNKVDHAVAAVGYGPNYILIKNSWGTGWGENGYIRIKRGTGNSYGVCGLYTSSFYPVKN
Experimental: (§2) Four digestion reactions were carried out with real-time amperometric analysis. […] Tryspin was resuspended in HCl (1 mM, pH 3.0), papain and carboxypeptidase were resuspended in NaCl (100 mM). […] The amperometry conditions were as set out in Tables 2 and 3.
(§3) In FIG. 18, there is shown the amperometric time course trace for the papain digestion of FcU-BSA. […] As the movement of the species present in the solution reaches a steady state, the current response appears to decay. […] The amperometric time course trace for the trypsin digestion of FcU-BSA is not illustrated in the drawings but was analogous.

trypsin = biological target: T4, trypsin (Sus scrofa, UniProt P00761); test: Amperometric analysis of trypsin digestion; format: biochemical, porcine; settings: amperometric time course trace
T4 construct: purchased Sigma; host or cells: porcine pancreas
Experimental: as §2
In FIG. 17, there is shown the amperometric time course trace for the trypsin digestion of Fc-BSA. […] As the movement of the species present in the solution reaches a steady state, the current response appears to decay.
as §3

[2] = biological target: porcine pancreas trypsin (1120 BAEE units/mg solid) (porcine) (UniProt P00761); test: cell-based or functional assay
porcine pancreas trypsin [3] = biological target: T1, porcine pancreas trypsin; test: Effect of a protease inhibitor on electrochemical marker signal (trypsin digestion of Fc-BSA); format: biochemical
Experimental: as §1
Five digestions of Fc-BSA with trypsin were carried out using the protocol described above. In addition, soybean trypsin inhibitor was added to reaction mixtures […]. Solutions of the soybean trypsin inhibitor were prepared by resuspending inhibitor as supplied in deionised water to a concentration of 10 mg/ml and 1 mg/ml as appropriate. No inhibitor was added to reaction (i); 0.5 μl of 1 mg/ml inhibitor solution was added to reaction (ii); […] of 10 mg/ml inhibitor was added to reaction (iii); 5 μl of 10 mg/ml inhibitor solution was added to reaction (iv) and 5 μl of 10 mg/ml inhibitor solution was added to a no-trypsin control reaction. The differential pulse voltammogram results are shown in FIG. 16 with baseline correction.

[4] = biological target: T5, type I-S soybean trypsin inhibitor, P01070
T5 chain: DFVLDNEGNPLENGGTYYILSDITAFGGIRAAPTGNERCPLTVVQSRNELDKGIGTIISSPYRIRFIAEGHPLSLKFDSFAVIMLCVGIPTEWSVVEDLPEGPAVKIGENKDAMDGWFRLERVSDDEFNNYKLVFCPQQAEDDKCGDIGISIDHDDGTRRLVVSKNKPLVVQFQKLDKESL

[5] = positive reaction, 2 μl enzyme (10 mgml^−1), 37° C. for 1 hour
[6] = positive reaction, 37° C. for 1 hour
[7] = no-trypsin control reaction with 5 μl of 10 mg/ml inhibitor solution
[8] = reaction (ii): 0.5 μl of 1 mg/ml inhibitor solution
[9] = reaction (iii): 0.51 of 10 mg/ml inhibitor
[10] = reaction (iv): 5 μl of 10 mg/ml inhibitor solution

Molecule: FcU-BSA: Bovine serum albumin labelled with 4-(3′-ferrocenylureido)-1-benzoyl groups
peak height (porcine pancreas trypsin [1]; no-trypsin control reaction): no peak | peak height (porcine pancreas trypsin [1]; [5]): 5.01×10^−7 A | peak position (porcine pancreas trypsin [1]; [5]): 97 mV | peak (papaya latex papain; no-papain control reaction): no peak was found | peak height (papaya latex papain; [6]): 2.62×10^−7 A | peak position (papaya latex papain; [6]): 93 mV | faradaic current response over time after addition of the enzyme (papain): increase in current | faradaic current response over time after addition of the enzyme (trypsin): analogous

peak height, differential pulse voltammogram of trypsin digestion of Fc-BSA; reaction (ii), 0.5 ul of 1 mg/ml inhibitor solution in the 200 ul reaction (no-inhibitor reaction (i): 2.56x10^-7 A) [2]: 2.12e-07 A
Molecule: type I-S soybean trypsin inhibitor (from UniProt P01070 25-205)

peaks in differential pulse voltammogram (porcine pancreas trypsin [1]; unlabelled substrate, trypsin reaction and no-trypsin control): No peaks were found
Molecule: unlabelled BSA: Bovine serum albumin (lyophilised powder, approx. 99%) from Sigma, unlabelled control substrate [reference compound]

peak height (porcine pancreas trypsin [3]; [7]): 2.75×10^−8 A | peak position (porcine pancreas trypsin [3]; [7]): 429 mV | peak height (porcine pancreas trypsin [3]; [8]): 2.12×10^−7 A | peak position (porcine pancreas trypsin [3]; [8]): 435 mV | peak height (porcine pancreas trypsin [3]; [9]): 1.60×10^−7 A | peak position (porcine pancreas trypsin [3]; [9]): 430 mV | peak height (porcine pancreas trypsin [3]; [10]): 5.33×10^−8 A | peak position (porcine pancreas trypsin [3]; [10]): 426 mV
B1: soybean trypsin inhibitor: type I-S soybean trypsin inhibitor obtained from Sigma (protein)
chain: DFVLDNEGNPLENGGTYYILSDITAFGGIRAAPTGNERCPLTVVQSRNELDKGIGTIISSPYRIRFIAEGHPLSLKFDSFAVIMLCVGIPTEWSVVEDLPEGPAVKIGENKDAMDGWFRLERVSDDEFNNYKLVFCPQQAEDDKCGDIGISIDHDDGTRRLVVSKNKPLVVQFQKLDKESL

B2: porcine pancreas trypsin (1120 BAEE units/mg solid) (protein)
chain: IVGGYTCAANSIPYQVSLNSGSHFCGGSLINSQWVVSAAHCYKSRIQVRLGEHNIDVLEGNEQFINAAKIITHPNFNGNTLDNDIMLIKLSSPATLNSRVATVSLPRSCAAAGTECLISGWGNTKSSGSSYPSLLQCLKAPVLSDSSCKSSYPGQITGNMICVGFLEGGKDSCQGDSGGPVVCNGQLQGIVSWGYGCAQKNKPGVYTKVCNYVNWIQQTIAAN
magnitude of signal in the differential pulse voltammogram of trypsin digestion of Fc-BSA [4]: the magnitude of signal in the differential pulse voltammogram is strongly dependent on the concentration of inhibitor present in the digestion experiment
